Details: Aspergillus oryzae (strain ATCC 42149 / RIB 40), pH 6, Thermal, DSC, sodium acetate calcium acetate 20 mM 2 mM, Mops 50 mM, reversible: yes, whole UniProt chain shown

B1: Guanyl-specific ribonuclease T1 wild type, P00651 (protein)
chain: MMYSKLLTLTTLLLPTALALPSLVERACDYTCGSNCYSSSDVSTAQAAGYQLHEDGETVGSNSYPHKYNNYEGFDFSVSSPYYEWPILSSGDVYSGGSPGADRVVFNENNQLAGVITHTGASGNNFVECT
- heat capacity change of unfolding (25 °C): 0.98 kcal/mol/K
- unfolding free energy (25 °C): 7.82 kcal/mol
- Tm: 57.2 °C
- unfolding enthalpy (calorimetric): 96.6 kcal/mol

Source: FireProtDB (doi:10.1111/j.1432-1033.1994.tb18652.x)
